According to patent publication US10696719B2, “Nucleoside triphosphate transporter and uses thereof” (THE SCRIPPS RESEARCH INSTITUTE, priority 2016, dated 2020):

B1: PtNTT2: nucleoside triphosphate transporter from Phaeodactylum tricornutum, full length, SEQ ID NO: 1 (protein, listed as Phaeodactylum tricornutum)
chain: MRPYPTIALISVFLSAATRISATSSHQASALPVKKGTHVPDSPKLSKLYIMAKTKSVSSSFDPPRGGSTVAPTTPLATGGALRKVRQAVFPIYGNQEVTKFLLIGSIKFFIILALTLTRDTKDTLIVTQCGAEAIAFLKIYGVLPAATAFIALYSKMSNAMGKKMLFYSTCIPFFTFFGLFDVFIYPNAERLHPSLEAVQAILPGGAASGGMAVLAKIATHWTSALFYVMAEIYSSVSVGLLFWQFANDVVNVDQAKRFYPLFAQMSGLAPVLAGQYVVRFASKAVNFEASMHRLTAAVTFAGIMICIFYQLSSSYVERTESAKPAADNEQSIKPKKKKPKMSMVESGKFLASSQYLRLIAMLVLGYGLSINFTEIMWKSLVKKQYPDPLDYQRFMGNFSSAVGLSTCIVIFFGVHVIRLLGWKVGALATPGIMAILALPFFACILLGLDSPARLEIAVIFGTIQSLLSKTSKYALFDPTTQMAYIPLDDESKVKGKAAIDVLGSRIGKSGGSLIQQGLVFVFGNIINAAPVVGVVYYSVLVAWMSAAGRLSGLFQAQTEMDKADKMEAKTNKEK
B2: PtNTT2(66-575): N-terminally truncated PtNTT2 variant, amino acids 1-65 removed, SEQ ID NO: 4 (protein, listed as Phaeodactylum tricornutum)
chain: MGGSTVAPTTPLATGGALRKVRQAVFPIYGNQEVTKFLLIGSIKFFIILALTLTRDTKDTLIVTQCGAEAIAFLKIYGVLPAATAFIALYSKMSNAMGKKMLFYSTCIPFFTFFGLFDVFIYPNAERLHPSLEAVQAILPGGAASGGMAVLAKIATHWTSALFYVMAEIYSSVSVGLLFWQFANDVVNVDQAKRFYPLFAQMSGLAPVLAGQYVVRFASKAVNFEASMHRLTAAVTFAGIMICIFYQLSSSYVERTESAKPAADNEQSIKPKKKKPKMSMVESGKFLASSQYLRLIAMLVLGYGLSINFTEIMWKSLVKKQYPDPLDYQRFMGNFSSAVGLSTCIVIFFGVHVIRLLGWKVGALATPGIMAILALPFFACILLGLDSPARLEIAVIFGTIQSLLSKTSKYALFDPTTQMAYIPLDDESKVKGKAAIDVLGSRIGKSGGSLIQQGLVFVFGNIINAAPVVGVVYYSVLVAWMSAAGRLSGLFQAQTEMDKADKMEAKTNKEK

Legend:
Assay type in all cases: cell-based
E. coli BL21(DE3) [1] = system: E. coli BL21(DE3)
Experimental: (§1) Unless otherwise stated, liquid bacterial cultures were grown in 2×YT (casein peptone 16 g/L, yeast extract 10 g/L, NaCl 5 g/L) supplemented with potassium phosphate (50 mM, pH 7), referred to hereafter as “media”, and incubated at 37° C. in a 48-well flat bottomed plate (CELLSTAR, Greiner Bio-One) with shaking at 200 rpm. Solid growth media was prepared with 2% agar. Antibiotics were used, as appropriate, at the following concentrations: carbenicillin, 100 μg/mL; streptomycin, 50 μg/mL; kanamycin, 50 μg/mL; zeocin, 50 μg/mL; chloramphenicol, 33 μg/mL for plasmids, 5 μg/mL for chromosomal integrants. All selective agents were purchased commercially. Cell growth, indicated as OD600, was measured using a Perkin Elmer Envision 2103 Multilabel Reader with a 590/20 nm filter.
(§2) Doubling times for strains grown in the dATP uptake assay were calculated by doubling time as (t2−t1)/log2(OD600,2/OD600,1), averaging across three, ˜30 min time intervals roughly corresponding to 30 min prior to dATP uptake and 60 min during dATP uptake.

E. coli C41(DE3) [2] = assay: growth / toxicity of transporter expression
Experimental: as §1, §2

E. coli BL21(DE3) [3] = assay: dATP uptake assay
Experimental: (§3) Radioactive uptake assays were conducted as described in Haferkamp, et al., “Tapping the nucleotide pool of the host: novel nucleotide carrier proteins of Protochlamydia amoebophila,” Mol. Microbiol. 60, 1534-1545 (2006) with the following modifications: C41(DE3) and BL21(DE3) strains carrying plasmid-based transporters and their appropriate empty plasmid controls, as well as BL21(DE3) chromosomal transporter integrants and their appropriate isogenic transporter-less control, were grown overnight with appropriate antibiotics (streptomycin for pCDF plasmids and chloramphenicol for pSC plasmids and integrants) in 500 μL of media. Cultures were diluted to an OD600 of 0.02 in 500 μL of fresh media, grown for 2.5 h, induced with IPTG (0-1 mM, pCDF strains only) or grown (all other strains) for 1 h, and incubated with dATP spiked with [α-^32P]-dATP (final concentration=250 μM (0.5 μCi/mL)) for ˜1 h. […]
(§4) Following incubation with dATP, 200 μL of each culture was collected through a 96-well 0.65 μm glass fiber filter plate (MultiScreen, EMD Millipore) under vacuum and washed with cold potassium phosphate (3×200 μL, 50 mM, pH 7) and cold ddH2O (1×200 μL). […] The resulting image was quantified by densitometric analysis using Image Studio Lite (LI-COR). […]

E. coli C41(DE3) [4] = assay: dATP uptake assay
Experimental: as §3, §4

Molecule	toxicity of expression (E. coli BL21(DE3) [1])	toxicity of expression (E. coli C41(DE3) [2])	uptake of [α-32P]-dATP (E. coli BL21(DE3) [3])	uptake of [α-32P]-dATP (E. coli C41(DE3) [4])
T7 RNAP: T7 RNA polymerase expressed in the E. coli (DE3) host strains	toxic	–	–	–
B1	–	toxic	–	–
B2	little increase in toxicity	lower toxicity relative to the full length PtNTT2	increased levels	reduced uptake
